{"source": "paper PMC3711744", "about": "(The Journal of neuroscience : the official journal of the …, 2013)", "test_in_all_cases": "pull-down", "key": {"[1]": {"target": "T1, His-tagged CaMKIIα-FL(M1-H478) (UniProt P11275 1-478)", "T1 sequence (P11275 whole entry)": "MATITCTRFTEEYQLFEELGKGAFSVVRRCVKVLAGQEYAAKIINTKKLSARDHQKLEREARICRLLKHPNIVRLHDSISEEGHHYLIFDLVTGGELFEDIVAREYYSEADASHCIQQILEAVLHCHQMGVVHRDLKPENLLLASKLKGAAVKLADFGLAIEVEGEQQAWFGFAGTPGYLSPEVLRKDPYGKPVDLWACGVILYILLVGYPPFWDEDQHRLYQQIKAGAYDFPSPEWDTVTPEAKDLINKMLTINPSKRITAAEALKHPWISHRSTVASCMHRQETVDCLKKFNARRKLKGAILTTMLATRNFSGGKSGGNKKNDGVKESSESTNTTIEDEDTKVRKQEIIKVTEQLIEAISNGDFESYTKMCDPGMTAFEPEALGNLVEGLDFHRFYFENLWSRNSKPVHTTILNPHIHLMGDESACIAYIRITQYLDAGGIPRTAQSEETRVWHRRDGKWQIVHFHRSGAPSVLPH"}, "[2]": {"target": "T286-autophosphorylated CaMKIIα (UniProt P11275 1-478, phosphothreonine at 286 (autophosphorylation))", "sequence (P11275 whole entry)": "as above"}, "[3]": {"target": "T1, His-tagged CaMKIIα-FL(M1-H478)", "remark": "listed apart in the source"}, "GST-CaMKIIα-FL(M1-H478)": {"target": "GST-CaMKIIα-FL(M1-H478) (UniProt P11275 1-478)", "sequence (P11275 whole entry)": "as above"}}, "note": "Where two headings read alike, the source gives them in different places.", "data": [{"binder": "GST-mGluR1a-CT1(K841-T1000) (domain or fragment, rat, UniProt P23385 841-1000, looked up) KPERNVRSAFTTSDVVRMHVGDGKLPCRSNTFLNIFRRKKPGAGNANSNGKSVSWSEPGGRQAPKGQHVWQRLSVHVKTNETACNQTAVIKPLTKSYQGSGKSLTFSDASTKTLYNVEEEDNTPSAHFSPPSSPSMVVHRRGPPVATTPPLPPHLTAEET", "values": [{"measurement": "binding result", "setting": "[1]", "result": "binds"}, {"measurement": "binding result", "setting": "[2]", "result": "binds"}]}, {"binder": "KLPCRSNTFLNIFR", "note": "[mGluR1a-i (14-amino acid interfering peptide)]", "values": [{"measurement": "binding result", "setting": "[1]", "result": "binds"}]}, {"binder": "GST-mGluR1a-CT-FL(K841-L1199) (domain or fragment, rat, UniProt P23385 841-1199, looked up) KPERNVRSAFTTSDVVRMHVGDGKLPCRSNTFLNIFRRKKPGAGNANSNGKSVSWSEPGGRQAPKGQHVWQRLSVHVKTNETACNQTAVIKPLTKSYQGSGKSLTFSDASTKTLYNVEEEDNTPSAHFSPPSSPSMVVHRRGPPVATTPPLPPHLTAEETPLFLADSVIPKGLPPPLPQQQPQQPPPQQPPQQPKSLMDQLQGVVTNFGSGIPDFHAVLAGPGTPGNSLRSLYPPPPPPQHLQMLPLHLSTFQEESISPPGEDIDDDSERFKLLQEFVYEREGNTEEDELEEEEDLPTASKLTPEDSPALTPPSPFRDSVASGSSVPSSPVSESVLCTPPNVTYASVILRDYKQSSSTL", "values": [{"measurement": "binding result", "setting": "[3]", "result": "binds"}]}, {"binder": "KPERNVRSAFTTSDVVRMHVGDGKLPCRSNTFLNIFRRKKPGAGN (domain or fragment, rat, UniProt P23385 841-885, looked up)", "note": "[GST-mGluR1a-CT1a(K841-N885)]", "values": [{"measurement": "binding result", "setting": "[3]", "result": "binds"}]}, {"binder": "purified mGluR1a-CT (domain or fragment, rat, UniProt P23385 841-1199, looked up) KPERNVRSAFTTSDVVRMHVGDGKLPCRSNTFLNIFRRKKPGAGNANSNGKSVSWSEPGGRQAPKGQHVWQRLSVHVKTNETACNQTAVIKPLTKSYQGSGKSLTFSDASTKTLYNVEEEDNTPSAHFSPPSSPSMVVHRRGPPVATTPPLPPHLTAEETPLFLADSVIPKGLPPPLPQQQPQQPPPQQPPQQPKSLMDQLQGVVTNFGSGIPDFHAVLAGPGTPGNSLRSLYPPPPPPQHLQMLPLHLSTFQEESISPPGEDIDDDSERFKLLQEFVYEREGNTEEDELEEEEDLPTASKLTPEDSPALTPPSPFRDSVASGSSVPSSPVSESVLCTPPNVTYASVILRDYKQSSSTL", "values": [{"measurement": "binding result", "setting": "GST-CaMKIIα-FL(M1-H478)", "result": "binds"}]}]}
